± gives the uncertainty stated by the source.
assay: amyloid nucleation score (Sup35N fusion, yeast selection) (log enrichment); library NNK1; higher = more nucleation; inactive = no reads after selection
In short: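 The nucleation score is the DiMSum log enrichment of output over input reads, centred on the mode score of non-aggregating sequences. Only sequences with 100 or more input reads were scored, using Illumina sequencing of input and output plasmid inserts. Psi-negative yeast expressing Sup35N fused to peptides of 20 random codons were induced 24 hours with 100 μM copper sulfate and grown 7 days at 30°C on medium lacking adenine and uracil.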

In order of falling amyloid nucleation score:
1. QLNLNLFACQCSTV  8.072 ± 0.076
2. QLCGFITCIISMSLPGYQCE  7.816 ± 0.052
3. PVLYNHCGVNLCPTLCLSNY  7.199 ± 0.053
4. MLSGSVAESKNLIQLCAFFM  6.704 ± 0.047
5. YDRVYLNQFVRTESVHFFCL  6.341 ± 0.056
6. SAFSLIGLIVMNAGK  6.04 ± 0.076
7. NKEVNYTNIINCVGIRGCRL  4.77 ± 0.051
8. SYHVMNKDYMVYFKNTYKDK  4.68 ± 0.078
9. VSRWYVILNML  4.03 ± 0.11
10. HNLYMWVFCCCQYRMNFSWS  3.49 ± 0.11
11. RFLYVGCCINTIVGFTWFRS  3.28 ± 0.11
12. SFLNINPRQFSWIYCPLVVY  2.94 ± 0.23
13. SVWMCM  2.64 ± 0.1
14. IYYTSWYINAYLCGHMPVRG  2.52 ± 0.23
15. YIVGPIGVFSY  2.25 ± 0.55
16. KSFYGNFRGFFNALNIYHSS  1.83 ± 0.28
17. LLVSLSNCFLIWSSAGSMGG  1.81 ± 0.23
18. WLLIRKGGVRFKIQYRHQHS  1.73 ± 0.37
19. NVMSSPCIRVGMLRMGVTKS  1.62 ± 0.51
20. ECIIYPIVMHVFVQNMM  1.56 ± 0.28
21. VLESLAYFPGFNEWCGDMMS  1.43 ± 0.42
22. RNASIRVTSQVCYVNS  1.3 ± 0.27
23. NTKELVYKMGCGVRYHGKWG  1.28 ± 0.71
24. SLVVVGCWLAANQESK  1.28 ± 0.33
25. TLVIVTFFMIFIGMVSVFYR  1.27 ± 0.25
26. MYVNSSNYDLWMNFKIVFWA  1.18 ± 0.25
27. GNIDGICERSCNRFANYIQG  1.11 ± 0.49
28. QIRGGGAGSDSVDGHRALEA  1.08 ± 0.59
29. GRCVNVSCHIRRPQVGTPRA  1.07 ± 0.8
30. TADFLCSINEAFSVFTLLRE  1.03 ± 0.93
31. HCRFWRTFDGSNGRNIENSD  0.986 ± 1.1
32. VRLTSINSLCIVGDTQGST  0.945 ± 0.73
33. KMGYFE  0.915 ± 0.45
34. WALISYGVWGTRTADLCRCH  0.907 ± 0.65
35. LGWIDSYTYHWDTIHRKQFR  0.878 ± 0.33
36. TFSHWPLWNVYRSFAFTCRP  0.871 ± 0.47
37. IIGQYMQFAYFSVDRTL  0.871 ± 0.38
38. LRVYPGTYLTNRETRSRSCI  0.828 ± 0.43
39. CSAQTGVGSFPFGNIPVVSV  0.789 ± 0.56
40. LAMSSQSHYCKRRSVCRKSV  0.786 ± 0.81
41. HEKDWLTSVCFISELSTFNN  0.709 ± 0.65
42. SCTPWAVLFMLKSALGSLRG  0.708 ± 0.71
43. DQFLGYMANVAGVVP  0.686 ± 0.34
44. GPPRN  0.681 ± 0.65
45. IRRSIGVRAPWTFSEEDGSS  0.6 ± 0.79
46. FPEWNSWYQRRVMAKGAHGY  0.58 ± 1.1
47. RYYRVLLKFVLLSLVCTRYA  0.578 ± 0.19
48. YVQLLMVHNAMYRSAGIFSY  0.572 ± 0.56
49. ILYGISSFESIADWAGLMSV  0.535 ± 0.84
50. IPMPMLRRKKTGYLLSTGSA  0.532 ± 0.49
51. VWELGPFCDLEVRYV  0.531 ± 0.52
52. YVMQSATDVETSNSGIS  0.525 ± 0.84
53. RLRSMAAP  0.513 ± 0.66
54. TSPDYPRRYVQMSRR  0.507 ± 0.52
55. GGSYKEYTLCKHTAP  0.506 ± 0.67
56. MVNILIK  0.462 ± 0.49
57. VSGIVPDDLSVFDVHSKYV  0.455 ± 0.33
58. IIGQLRI  0.454 ± 0.66
59. IMGVDVLGYTLDPVGDCNVF  0.412 ± 0.73
60. DNWSMGYPEETGAWGVN  0.406 ± 0.45
61. NYSEPDFKFHCVYGVYAMWG  0.403 ± 0.88
62. MGAIFCNGSK  0.371 ± 0.67
63. ERLGMWDSRMVQLWDSFCIE  0.363 ± 0.48
64. SLNFTDHIYYMDGLLIAVVE  0.358 ± 0.32
65. MLISSILTYIKVSGYCPGCT  0.347 ± 0.52
66. THNSLFSHVSWYRCVSSGVF  0.304 ± 1.1
67. SLTYCHSIIKDLETLIFRSK  0.283 ± 0.61
68. QIPPRDL  0.274 ± 0.51
69. VYLKEEHGKFAGGPSPRCKP  0.274 ± 0.46
70. SLLLLMGALSHGMRLFKGSS  0.268 ± 0.82
71. ICSGGYLVWELPSGTADQVM  0.25 ± 0.48
72. SFSIN  0.238 ± 0.29
73. VRLLEHSANPSMGKMNMNVG  0.231 ± 0.74
74. ICKLRNSTGSTRIT  0.227 ± 0.45
75. IRRSHSEVPVVA  0.22 ± 0.37
76. EPCCDVRVKGLYMFEYYVVC  0.185 ± 1.1
77. DAVQLMSCCMTISGPTKNRA  0.184 ± 0.56
78. GQTLALSYFTVLFSPMLNEW  0.169 ± 1
79. SMNHVFYYFIRMWTSM  0.156 ± 0.63
80. RKWNS  0.152 ± 0.72
81. RSGMFMGDWYSAAWKGKTSS  0.137 ± 0.31
82. IKGFALVWTPFGLAFFYRG  0.113 ± 0.95
83. VLLQELLSYITIGCLELGFG  0.11 ± 0.3
84. RMHYIG  0.106 ± 0.43
85. VSLCAQRYVIMMSIVRTKSL  0.105 ± 0.22
86. FRHGKVWSLLKLGADAGREE  0.098 ± 0.91
87. YCRFWVDFFVFESILDSPPN  0.093 ± 0.32
88. ARLENVTHFRFLQTNLGYIE  0.082 ± 0.67
89. YFSVYSRHRSIWTCGIVYSK  0.078 ± 0.49
90. IRTKILLLHKNQKTVVKGLG  0.073 ± 1.5
91. YSIVFGWLRYRLDWMCLISL  0.055 ± 0.26
92. LVRWVCIGFRYILRGELGVE  0.052 ± 0.28
93. YFKNTGEVRSIRLSGHHGWG  0.048 ± 0.86
94. ADVEVC  -0.005 ± 0.56
95. ARTGPTSASVGGLQPVCPGD  -0.019 ± 0.55
96. LYETMTCFWMRLWSFCGSPA  -0.033 ± 0.69
97. WWSRTLSLLE  -0.035 ± 0.32
98. LLASAIHLNRTADAMKEYYP  -0.036 ± 0.39
99. TSHPGRCRGYASRASSEVFR  -0.038 ± 0.43
100. GHTRR  -0.062 ± 0.41
101. FVPLTVN  -0.068 ± 0.28
102. WSGWAKPSHYVALGRVGSWE  -0.075 ± 0.63
103. RYPPG  -0.077 ± 1.1
104. TCMTRTLYIL  -0.092 ± 0.37
105. GAFRVVSQHRASDVS  -0.116 ± 0.41
106. DFCVQNFMMLKFKLCYRRSL  -0.134 ± 1.2
107. YRDDYACFLRPYPARCG  -0.141 ± 0.92
108. ASAGPRWIWFGLGLQRCDAY  -0.141 ± 0.87
109. GMSCWGLCSYNTRAYRNNPT  -0.151 ± 0.63
110. QTRSPQFKPAAYRVFLVDLC  -0.159 ± 0.77
111. IDNTLIIDFLFLCNVRTFLR  -0.162 ± 0.24
112. QELWHMYSIYYVFRTGDHIY  -0.163 ± 0.27
113. PIHYEPSKAVYYTQFRGGMG  -0.184 ± 0.42
114. LRFRMNSLLVKWFFP  -0.199 ± 0.34
115. FFSPSNKNYKR  -0.215 ± 0.35
116. RFGFSLSADIMDPRMIVRCM  -0.227 ± 0.24
117. FTAKSL  -0.324 ± 0.38
118. SKSGLDDGHDA  -0.335 ± 0.23
119. FWHPLG  -0.342 ± 0.28
120. DLNCFAFVWVIIYTRDGWTI  -0.353 ± 0.3
121. FDIIK  -0.358 ± 1.4
122. YRRNIIL  -0.368 ± 0.4
123. WPRNRHGVVILLVVIANSCS  -0.379 ± 0.76
124. CYCFET  -0.381 ± 0.71
125. HLPTKFLGVPNKLAYSTAPV  -0.401 ± 0.42
126. MPNSPQS  -0.404 ± 0.3
127. SMYSNRHHDWFR  -0.412 ± 1.4
128. TSPGRYFCRLHVLHSGM  -0.468 ± 1.9
129. SCPVPKLLAIGLSHVRSFGF  -0.47 ± 0.42
130. VGYHFMYSMSAFVASWRSWG  -0.482 ± 0.88
131. MGCWCLASRDLTKT  -0.485 ± 1
132. YQTWRQWLLFACRVSECYDM  -0.508 ± 1.1
133. MYLITGKIARNAKTDSPGSN  -0.52 ± 0.68
134. LFLMKANMELVNLYFRSEVR  -0.556 ± 0.52
135. CICRRVSKTVLSLQANEAPC  -0.561 ± 0.41
136. TYRLH  -0.57 ± 0.55
137. FGLYYLSNSEFMYVDRFHLG  -0.575 ± 0.38
138. LVTFPKLSEVIHGKADVMHS  -0.633 ± 0.88
139. PYKLGCICITNDFSQAPTVA  -0.652 ± 0.92
140. TRRYWV  -0.679 ± 0.32
141. HEGMLPIDVLRHSRPRQPFV  -0.686 ± 0.83
142. ENFPPAQ  -0.691 ± 0.5
143. SSSKGSMENYISYRSL  -0.703 ± 0.32
144. KADQCLSWDS  -0.717 ± 0.97
145. RGLGWHHRLSCYRSAGFARA  -0.719 ± 2.1
146. FVRSFYSDKLWQIFGWVVGS  -0.753 ± 0.51
147. SRAAFVSSKPYMSWGVTYVH  -0.792 ± 1.3
148. DYSCARYEPGNMVLLC  -0.813 ± 1.5
149. LCWVYHYKGFKRGVCRRCES  -0.86 ± 1.6
150. VCLANGHWATHMHYIFHYLS  -0.915 ± 0.73
151. DVLVHLP  -0.917 ± 1.2
152. GSLAW  -0.972 ± 0.94
153. LFMIMLL  -1.01 ± 0.43
154. FEDEPGVSFWNSGGFK  -1.07 ± 0.62
155. VCNQWGDHA  -1.08 ± 1.7
156. AGKHLGNNIRYILVYGESFR  -1.09 ± 0.85
157. AVTCSPPGPMQGLTFLFMAL  -1.11 ± 1
158. HYLCPVACRGRFVVSQPVNI  -1.14 ± 1.5
159. VWFIVLSRGQFHICFYGQG  -1.32 ± 2.7
160. PVFCPRV  -1.55 ± 1.3
161. RSVYSDLSQTYRLQDFFETM  -1.69 ± 2.4
162. SYVPANY  -1.82 ± 1.1

In the case of RRLKETKT, the amyloid nucleation score is reported as “inactive”.
With LIMVFVDSLRNRLELCFFQC the amyloid nucleation score was “inactive”.
For RILEGVFS, the amyloid nucleation score was “inactive”.
In the case of LSRIDRFTVGENMVTATFLI, the amyloid nucleation score is reported as “inactive”.
With KCLSLNCMPYTFLLSRYYPY the amyloid nucleation score was “inactive”.
For LKFKARLRRTLPVQQNRAIG, the amyloid nucleation score was “inactive”.
In the case of DLHWILNHTNGACFQWGQPA, the amyloid nucleation score is reported as “inactive”.
In the case of IVASYRYNYMYDLHLLSALQ, the amyloid nucleation score is reported as “inactive”.
For VFGSKFGLKLITDFINILLR, the amyloid nucleation score was “inactive”.
With STFFSY the amyloid nucleation score was “inactive”.
With RYFLEMISRYISRN the amyloid nucleation score was “inactive”.

From the supplement of paper PMC12042874
